# Measured values published in patent US20240392024A1 (SHANGHAI CELGEN BIO PHARMACEUTICAL, published 2024).
# Changes are numbered by the printed parent chain. Values joined by “and” are separate entries in the source; they are usually repeats but may differ in a detail not shown here. Equal values may be shown once.
# B1: 12E12huVH5 + huVL4(P07292) (antibody, V domains shown)
# VH: EVQLVQSGAEVKKPGATVKISCKVSGFNIKDFYIHWVQQAPGKGLEWIGRVDPEDGNTEYAEKFQGRVTITADTSTDTAYMELSSLRSEDTAVYYCSTWDGFSYFDYWGQGTTVTVSS
# VL: EAVVTQSPATLSLSPGERATLSCRSSTGPVTTNNYANWVQQKPGQAFRGLIGGTNDRAPGIPARFSGSGSGTDTTLTISSLQPEDFAVYYCALWYRNHWVFGGGTKLEIK
# notes: Humanized 12E12
# B2: 12E12huVH4 + huVL4(P07291) (antibody, V domains shown)
# VH: B1 VH with E62P, K63N, G66D
# VL: B1 VL
# notes: Humanized 12E12
# B3: 11G2huVH4 + huVL3(P07274) (antibody, V domains shown)
# VH: QVQLVQSGAEVKKPGASVKVSCKASGYTFITYDINWVRQAPGQGLEWIGWIYPRDGNTQYAQKFQGRVTMTTDTSTSTAYMELRSLRSDDTAVYYCARGDRDYGYFDVWGQGTTVTVSS
# VL: DIQMTQSPSSLSASVGDRVTITCQASQDISNYLNWYQQKPGKAPKLLIYFKSKLETGVPSRFSGSGSGTDFTFTISSLQPEDIATYYCQQGNTLPLTFGGGTKLEIK
# notes: Humanized 11G2
# B4: 11G2huVH4 + huVL2(P07269) (antibody, V domains shown)
# VH: B3 VH
# VL: B3 VL with Q24R, E55H, T56S, F73L, I83F
# notes: Humanized 11G2
# B5: 11G2huVH5 + huVL3(P07275) (antibody, V domains shown)
# VH: B3 VH with P41T, T72R, D73N, T76I, R84S, D89E
# VL: B3 VL
# notes: Humanized 11G2
# B6: 11G2huVH5 + huVL2(P07270) (antibody, V domains shown)
# VH: B3 VH with P41T, T72R, D73N, T76I, R84S, D89E
# VL: B3 VL with Q24R, E55H, T56S, F73L, I83F
# notes: Humanized 11G2
# B7: 33C12huVH2 + huVL2(P07301) (antibody, V domains shown)
# VH: EVQLVESGGGLVKPGGSLRLSCAASGFTFSDYTMSWVRQAPGKGLEWVATISTGGSYTYYPDSVKGRFTISRDNAKNTLYLQMSSLRAEDTAVYYCARDGGYDGDYFDYWGQGTTVTVSS
# VL: ENVLTQSPATLSLSPGERATLSCRASSSVSSSYLHWYQQKPGQAPRLWIYRTSNLASGVPARFSGSGSGTDFTLTISRLEPEDFAVYYCQQYSGYPLTFGGGTKLEIK
# notes: Humanized 33C12
# B8: 33C12huVH3 + huVL3(P07304) (antibody, V domains shown)
# VH: B7 VH with P61A, T78S, S84N
# VL: B7 VL with N2I, W48L, S57T, V59I, A61D
# notes: Humanized 33C12
# B9: 33C12huVH1 + huVL1(P07298) (antibody, V domains shown)
# VH: B7 VH with E1D, A97T
# VL: B7 VL with L21M, F72Y, L79V
# notes: Humanized 33C12
# B10: 33C12huVH3 + huVL1(P07300) (antibody, V domains shown)
# VH: B7 VH with P61A, T78S, S84N
# VL: B7 VL with L21M, F72Y, L79V
# notes: Humanized 33C12
# B11: 33C12huVH2 + huVL1(P07299) (antibody, V domains shown)
# VH: B7 VH
# VL: B7 VL with L21M, F72Y, L79V
# notes: Humanized 33C12
# B12: 33C12huVH3 + huVL2(P07302) (antibody, V domains shown)
# VH: B7 VH with P61A, T78S, S84N
# VL: B7 VL
# notes: Humanized 33C12
# B13: 33C12huVH2 + huVL3(P07303) (antibody, V domains shown)
# VH: B7 VH
# VL: B7 VL with N2I, W48L, S57T, V59I, A61D
# notes: Humanized 33C12
# How the values were obtained:
# [1] = biological target: T1, human TNFR2 on the cell membrane (human, UniProt P20333 23-461); assay: flow cytometry on CHO-TNFR2 cells
# T1 construct: whole, on cells; One molecule for all cell formats; also called TNFR2-CHO cells; CHO-TNFR2
# T1 sequence (looked up): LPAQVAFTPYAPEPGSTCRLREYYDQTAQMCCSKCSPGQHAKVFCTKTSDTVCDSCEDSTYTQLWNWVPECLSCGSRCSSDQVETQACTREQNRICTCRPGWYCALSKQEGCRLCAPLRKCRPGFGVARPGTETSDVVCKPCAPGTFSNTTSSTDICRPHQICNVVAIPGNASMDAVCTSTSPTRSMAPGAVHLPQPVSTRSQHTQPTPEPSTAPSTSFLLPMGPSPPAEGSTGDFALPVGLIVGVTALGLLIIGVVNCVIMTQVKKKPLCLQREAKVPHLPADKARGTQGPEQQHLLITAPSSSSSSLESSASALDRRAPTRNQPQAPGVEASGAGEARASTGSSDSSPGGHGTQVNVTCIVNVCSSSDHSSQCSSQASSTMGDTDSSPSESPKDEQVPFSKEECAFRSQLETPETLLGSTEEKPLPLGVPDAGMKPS
# Procedure, shortened: (§1)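 EC50 values come from flow cytometry of serially diluted antibodies binding CHO cells that stably overexpress human TNFR2. After incubation in 96-deep-well plates, the cells were washed, stained with a fluorescent anti-IgG secondary antibody and read on a Beckman CytoFLEX.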
# [2] = biological target: T2, TNFR2-His (Sino Biological, 10417-H08H, NP_001057.1 Met1-Asp257, with multi-histidine tag expressed on … (human, UniProt P20333 23-257)); assay: BLI, antibody captured on AHC probe, TNFR2 in solution
# T2 construct: range 1-257; Bought protein; also called recombinant human TNFR2 protein; TNFR2-His antigen; not shown: C-terminal multi-histidine tag
# T2 sequence (looked up): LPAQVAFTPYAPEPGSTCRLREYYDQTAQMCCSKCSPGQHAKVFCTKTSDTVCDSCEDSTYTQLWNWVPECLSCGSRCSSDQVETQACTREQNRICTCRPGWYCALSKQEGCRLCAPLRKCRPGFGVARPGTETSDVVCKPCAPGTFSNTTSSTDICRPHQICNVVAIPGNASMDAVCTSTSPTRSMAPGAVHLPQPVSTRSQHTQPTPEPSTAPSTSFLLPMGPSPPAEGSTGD
# Procedure, shortened: (§2)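 Kon, koff and Kd values come from kinetic association measurements made by bio-layer interferometry (Octet, Basic Kinetics mode). Antibody-capture sensors carrying antibodies at 50 nM in Q buffer (10 mM PBS pH 7.4, 0.02% Tween 20, 0.2% BSA) were placed in recombinant human TNFR2, diluted 2-fold in the same buffer from a top concentration of 100 nM.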
# [3] = biological target: T2, TNFR2-His (Sino Biological, 10417-H08H, …); assay: ELISA, plate coated with TNFR2-His (first test)
# Procedure, shortened: (§3)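 EC50 was obtained from a dilution series in an ELISA format. Blocked plates carried recombinant human TNFR2 with a C-terminal His tag, and serially diluted antibodies were incubated on them. An enzyme-labelled anti-IgG secondary antibody followed. Plates were then developed with TMB and read on a microplate reader.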
# [4] = biological target: T2, TNFR2-His (Sino Biological, 10417-H08H, …); assay: ELISA, coated TNFR2-His
# Procedure, shortened: as §3
# [5] = biological target: T1, human TNFR2 on the cell membrane; assay: flow cytometry, CHO-TNFR2 cells
# Procedure, shortened: as §1
# [6] = biological target: T1, human TNFR2 on the cell membrane; assay: flow cytometry on CHO-TNFR2 cells; remark: listed apart in the source
# Procedure, shortened: as §1
# [7] = biological target: T2, TNFR2-His (Sino Biological, 10417-H08H, …); assay: ELISA, plate coated with TNFR2-His
# Procedure, shortened: as §3
# [8] = biological target: T2, TNFR2-His (Sino Biological, 10417-H08H, …); assay: BLI, antibody captured on AHC probe, TNFR2-His in solution
# Procedure, shortened: as §2
# [9] = biological target: T1, human TNFR2 on the cell membrane; assay: flow cytometry on CHO-TNFR2 cells; remark: listed apart in the source
# Procedure, shortened: as §1
# [10] = biological target: T2, TNFR2-His (Sino Biological, 10417-H08H, …); assay: ELISA, plate coated with TNFR2-His; remark: listed apart in the source
# Procedure, shortened: as §3
# [11] = biological target: T2, TNFR2-His (Sino Biological, 10417-H08H, …); assay: BLI, antibody captured on AHC probe, TNFR2-His in solution; remark: listed apart in the source
# Procedure, shortened: as §2
binder,measurement,setting,value
B1,EC50,[1],0.0329 µg/mL and 0.221 nM
same,Kd,[2],3.14 nM
same,koff,[2],0.0034 s⁻¹
same,kon,[2],1.08e+06 M⁻¹ s⁻¹
same,EC50,[3],0.0533 µg/mL and 0.357 nM
B2,EC50,[1],0.0215 µg/mL and 0.144 nM
same,Kd,[2],4.84 nM
same,koff,[2],0.00379 s⁻¹
same,kon,[2],782000 M⁻¹ s⁻¹
same,EC50,[3],0.0416 µg/mL and 0.279 nM
B3,EC50,[4],0.5 nM
same,EC50,[5],0.226 nM
same,EC50,[6],0.0338 µg/mL
same,EC50,[7],0.0746 µg/mL
same,Kd,[8],20.1 nM
same,koff,[8],0.00511 s⁻¹
same,kon,[8],254000 M⁻¹ s⁻¹
B4,EC50,[4],0.364 nM
same,EC50,[5],0.183 nM
same,EC50,[6],0.0273 µg/mL
same,EC50,[7],0.0544 µg/mL
same,Kd,[8],13.5 nM
same,koff,[8],0.00379 s⁻¹
same,kon,[8],281000 M⁻¹ s⁻¹
B5,EC50,[4],0.149 nM
same,EC50,[5],0.056 nM
same,EC50,[6],0.0084 µg/mL
same,EC50,[7],0.0222 µg/mL
same,Kd,[8],14.1 nM
same,koff,[8],0.00302 s⁻¹
same,kon,[8],213000 M⁻¹ s⁻¹
B6,EC50,[4],0.353 nM
same,EC50,[5],0.162 nM
same,EC50,[6],0.0242 µg/mL
same,EC50,[7],0.0527 µg/mL
same,Kd,[8],8.13 nM
same,koff,[8],0.00265 s⁻¹
same,kon,[8],326000 M⁻¹ s⁻¹
B7,EC50,[4],0.886 nM
same,EC50,[5],0.873 nM
same,EC50,[9],0.13 µg/mL
same,EC50,[10],0.132 µg/mL
same,Kd,[11],17.8 nM
same,koff,[11],0.00279 s⁻¹
same,kon,[11],157000 M⁻¹ s⁻¹
B8,EC50,[4],0.354 nM
same,EC50,[5],1.08 nM
same,EC50,[9],0.161 µg/mL
same,EC50,[10],0.0528 µg/mL
same,Kd,[11],48.7 nM
same,koff,[11],0.00368 s⁻¹
same,kon,[11],75600 M⁻¹ s⁻¹
B9,EC50,[4],0.433 nM
same,EC50,[5],0.448 nM
same,EC50,[9],0.0669 µg/mL
same,EC50,[10],0.0646 µg/mL
same,Kd,[11],17.7 nM
same,koff,[11],0.00171 s⁻¹
same,kon,[11],96400 M⁻¹ s⁻¹
B10,EC50,[4],1.08 nM
same,EC50,[5],1.44 nM
same,EC50,[9],0.214 µg/mL
same,EC50,[10],0.161 µg/mL
same,Kd,[11],12.7 nM
same,koff,[11],0.00223 s⁻¹
same,kon,[11],175000 M⁻¹ s⁻¹
B11,EC50,[4],1.46 nM
same,EC50,[5],2.27 nM
same,EC50,[9],0.34 µg/mL
same,EC50,[10],0.218 µg/mL
same,Kd,[11],15.1 nM
same,koff,[11],0.0013 s⁻¹
same,kon,[11],86100 M⁻¹ s⁻¹
B12,EC50,[4],2.03 nM
same,EC50,[5],3.01 nM
same,EC50,[9],0.449 µg/mL
same,EC50,[10],0.303 µg/mL
same,Kd,[11],11.9 nM
same,koff,[11],0.00188 s⁻¹
same,kon,[11],158000 M⁻¹ s⁻¹
B13,EC50,[4],0.771 nM
same,EC50,[5],1.12 nM
same,EC50,[9],0.167 µg/mL
same,EC50,[10],0.115 µg/mL
same,Kd,[11],16.3 nM
same,koff,[11],0.00167 s⁻¹
same,kon,[11],102000 M⁻¹ s⁻¹
